From the supplement of paper PMC5998384

Key:
HeLa Kyoto [1] = experiment: solubility in G1/S (NP-40 vs SDS abundance) (log2 ratio); higher = more soluble; conditions: cell cycle stage: G1/S
HeLa Kyoto [2] = experiment: melting temperature (median over replicates), in situ; higher = more thermally stable
HeLa Kyoto [3] = experiment: solubility change mitosis vs G1/S (difference of NP-40 vs SDS log2 ratios) (log2 ratio difference); higher = more soluble in mitosis
HeLa Kyoto [4] = experiment: thermal stability score vs G1/S (z-score of summed log2 fold changes over temperatures); higher = more thermally stable than in G1/S
[5] = cell cycle stage: early G1 (4.5 h after nocodazole release)
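Throughout, for melting temperature (median over replicates), in situ: HeLa Kyoto cells synchronized by double thymidine or nocodazole block, proteins quantified by TMT10plex mass spectrometry, three independent biological replicates.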
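Throughout, for solubility change mitosis vs G1/S (difference of NP-40 vs SDS log2 ratios): synchronized HeLa Kyoto cells (double thymidine block for G1/S, nocodazole release for mitosis), protein amounts in NP-40 versus SDS lysates quantified by mass spectrometry, three biological replicates.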
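Throughout, for solubility in G1/S (NP-40 vs SDS abundance): HeLa Kyoto cells arrested at G1/S by double thymidine block, proteins quantified by TMT10plex mass spectrometry in mild NP-40 versus SDS extracts, three biological replicates.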
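Throughout, for thermal stability score vs G1/S (z-score of summed log2 fold changes over temperatures): synchronized HeLa Kyoto cells, proteins quantified by TMT10plex mass spectrometry, three biological replicates, mitosis taken 0.5 h after nocodazole release, G1/S directly after double thymidine block.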

| Sequence | solubility in G1/S (log2) (HeLa Kyoto [1]) | melting temperature (HeLa Kyoto [2]; cell cycle stage: G1/S) [°C] | melting temperature (HeLa Kyoto [2]; cell cycle stage: mitosis) [°C] | solubility change mitosis (log2) (HeLa Kyoto [3]) | thermal stability score (HeLa Kyoto [4]; [5]) | thermal stability score (HeLa Kyoto [4]; cell cycle stage: mitosis) |
| --- | --- | --- | --- | --- | --- | --- |
| MSPTISHKDSSRQRRPGNFSHSLDMKSGPLPPGGWDDSHLDSAGREGDREALLGDTGTGDFLKAPQSFRAELSSILLLLFLYVLQGIPLGLAGSIPLILQSKNVSYTDQAFFSFVFWPFSLKLLWAPLVDAVYVKNFGRRKSWLVPTQYILGLFMIYLSTQVDRLLGNTDDRTPDVIALTVAFFLFEFLAATQDIAVDGWALTMLSRENVGYASTCNSVGQTAGYFLGNVLFLALESADFCNKYLRFQPQPRGIVTLSDFLFFWGTVFLITTTLVALLKKENEVSVVKEETQGITDTYKLLFAIIKMPAVLTFCLLILTAKIGFSAADAVTGLKLVEEGVPKEHLALLAVPMVPLQIILPLIISKYTAGPQPLNTFYKAMPYRLLLGLEYALLVWWTPKVEHQGGFPIYYYIVVLLSYALHQVTVYSMYVSIMAFNAKVSDPLIGGTYMTLLNTVSNLGGNWPSTVALWLVDPLTVKECVGASNQNCRTPDAVELCKKLGGSCVTALDGYYVESIICVFIGFGWWFFLGPKFKKLQDEGSSSWKCKRNN [SLC33A1] | -0.0645 | 58.5 | 57.9 | -0.141 | -1.24 | -1.12 |
| MSQSGAVSCCPGATNGSLGRSDGVAKMSPKDLFEQRKKYSNSNVIMHETSQYHVQHLATFIMDKSEAITSVDDAIRKLVQLSSKEKIWTQEMLLQVNDQSLRLLDIESQEELEDFPLPTVQRSQTVLNQLRYPSVLLLVCQDSEQSKPDVHFFHCDEVEAELVHEDIESALADCRLGKKMRPQTLKGHQEKIRQRQSILPPPQGPAPIPFQHRGGDSPEAKNRVGPQVPLSEPGFRRRESQEEPRAVLAQKIEKETQILNCALDDIEWFVARLQKAAEAFKQLNQRKKGKKKGKKAPAEGVLTLRARPPSEGEFIDCFQKIKLAINLLAKLQKHIQNPSAAELVHFLFGPLDLIVNTCSGPDIARSVSCPLLSRDAVDFLRGHLVPKEMSLWESLGESWMRPRSEWPREPQVPLYVPKFHSGWEPPVDVLQEAPWEVEGLASAPIEEVSPVSRQSIRNSQKHSPTSEPTPPGDALPPVSSPHTHRGYQPTPAMAKYVKILYDFTARNANELSVLKDEVLEVLEDGRQWWKLRSRSGQAGYVPCNILGEARPEDAGAPFEQAGQKYWGPASPTHKLPPSFPGNKDELMQHMDEVNDELIRKISNIRAQPQRHFRVERSQPVSQPLTYESGPDEVRAWLEAKAFSPRIVENLGILTGPQLFSLNKEELKKVCGEEGVRVYSQLTMQKAFLEKQQSGSELEELMNKFHSMNQRRGEDS [EPS8L2] | 0.468 | 50.4 | 50.1 | -0.0548 | 0.00646 | 0.475 |
| MSRDRFRSRGGGGGGFHRRGGGGGRGGLHDFRSPPPGMGLNQNRGPMGPGPGQSGPKPPIPPPPPHQQQQQPPPQQPPPQQPPPHQPPPHPQPHQQQQPPPPPQDSSKPVVAQGPGPAPGVGSAPPASSSAPPATPPTSGAPPGSGPGPTPTPPPAVTSAPPGAPPPTPPSSGVPTTPPQAGGPPPPPAAVPGPGPGPKQGPGPGGPKGGKMPGGPKPGGGPGLSTPGGHPKPPHRGGGEPRGGRQHHPPYHQQHHQGPPPGGPGGRSEEKISDSEGFKANLSLLRRPGEKTYTQRCRLFVGNLPADITEDEFKRLFAKYGEPGEVFINKGKGFGFIKLESRALAEIAKAELDDTPMRGRQLRVRFATHAAALSVRNLSPYVSNELLEEAFSQFGPIERAVVIVDDRGRSTGKGIVEFASKPAARKAFERCSEGVFLLTTTPRPVIVEPLEQLDDEDGLPEKLAQKNPMYQKERETPPRFAQHGTFEYEYSQRWKSLDEMEKQQREQVEKNMKDAKDKLESEMEDAYHEHQANLLRQDLMRRQEELRRMEELHNQEMQKRKEMQLRQEEERRRREEEMMIRQREMEEQMRRQREESYSRMGYMDPRERDMRMGGGGAMNMGDPYGSGGQKFPPLGGGGGIGYEANPGVPPATMSGSMMGSDMRTERFGQGGAGPVGGQGPRGMGPGTPAGYGRGREEYEGPNKKPRF [SFPQ] | -0.264 | 47.7 | 48.9 | 0.67 | 4.77 | 7.88 |
| MSRFPAVAGRAPRRQEEGERSRDLQEERLSAVCIADREEKGCTSQEGGTTPTFPIQKQRKKIIQAVRDNSFLIVTGNTGSGKTTQLPKYLYEAGFSQHGMIGVTQPRKVAAISVAQRVAEEMKCTLGSKVGYQVRFDDCSSKETAIKYMTDGCLLKHILGDPNLTKFSVIILDEAHERTLTTDILFGLLKKLFQEKSPNRKEHLKVVVMSATMELAKLSAFFGNCPIFDIPGRLYPVREKFCNLIGPRDRENTAYIQAIVKVTMDIHLNEMAGDILVFLTGQFEIEKSCELLFQMAESVDYDYDVQDTTLDGLLILPCYGSMTTDQQRRIFLPPPPGIRKCVISTNISATSLTIDGIRYVVDGGFVKQLNHNPRLGLDILEVVPISKSEALQRSGRAGRTSSGKCFRIYSKDFWNQCMPDHVIPEIKRTSLTSVVLTLKCLAIHDVIRFPYLDPPNERLILEALKQLYQCDAIDRSGHVTRLGLSMVEFPLPPHLTCAVIKAASLDCEDLLLPIAAMLSVENVFIRPVDPEYQKEAEQRHRELAAKAGGFNDFATLAVIFEQCKSSGAPASWCQKHWIHWRCLFSAFRVEAQLRELIRKLKQQSDFPKETFEGPKHEVLRRCLCAGYFKNVARRSVGRTFCTMDGRGSPVHIHPSSALHEQETKLEWIIFHEVLVTTKVYARIVCPIRYEWVRDLLPKLHEFNAHDLSSVARREVREDARRRWTNKENVKQLKDGISKDVLKKMQRRNDDKSISDARARFLERKQQRTQDHSDTRKETG [DHX40] | -0.176 | 51.7 | 50.2 | -0.071 | 0.738 | 1.62 |
| MSRGGSYPHLLWDVRKRSLGLEDPSRLRSRYLGRREFIQRLKLEATLNVHDGCVNTICWNDTGEYILSGSDDTKLVISNPYSRKVLTTIRSGHRANIFSAKFLPCTNDKQIVSCSGDGVIFYTNVEQDAETNRQCQFTCHYGTTYEIMTVPNDPYTFLSCGEDGTVRWFDTRIKTSCTKEDCKDDILINCRRAATSVAICPPIPYYLAVGCSDSSVRIYDRRMLGTRATGNYAGRGTTGMVARFIPSHLNNKSCRVTSLCYSEDGQEILVSYSSDYIYLFDPKDDTARELKTPSAEERREELRQPPVKRLRLRGDWSDTGPRARPESERERDGEQSPNVSLMQRMSDMLSRWFEEASEVAQSNRGRGRSRPRGGTSQSDISTLPTVPSSPDLEVSETAMEVDTPAEQFLQPSTSSTMSAQAHSTSSPTESPHSTPLLSSPDSEQRQSVEASGHHTHHQSDNNNEKLSPKPGTGEPVLSLHYSTEGTTTSTIKLNFTDEWSSIASSSRGIGSHCKSEGQEESFVPQSSVQPPEGDSETKAPEESSEDVTKYQEGVSAENPVENHINITQSDKFTAKPLDSNSGERNDLNLDRSCGVPEESASSEKAKEPETSDQTSTESATNENNTNPEPQFQTEATGPSAHEETSTRDSALQDTDDSDDDPVLIPGARYRAGPGDRRSAVARIQEFFRRRKERKEMEELDTLNIRRPLVKMVYKGHRNSRTMIKEANFWGANFVMSGSDCGHIFIWDRHTAEHLMLLEADNHVVNCLQPHPFDPILASSGIDYDIKIWSPLEESRIFNRKLADEVITRNELMLEETRNTITVPASFMLRMLASLNHIRADRLEGDRSEGSGQENENEDEE [DCAF6] | -0.176 | 54.7 | 54.9 | 0.0043 | -1.47 | -2.02 |
| MSRHEGVSCDACLKGNFRGRRYKCLICYDYDLCASCYESGATTTRHTTDHPMQCILTRVDFDLYYGGEAFSVEQPQSFTCPYCGKMGYTETSLQEHVTSEHAETSTEVICPICAALPGGDPNHVTDDFAAHLTLEHRAPRDLDESSGVRHVRRMFHPGRGLGGPRARRSNMHFTSSSTGGLSSSQSSYSPSNREAMDPIAELLSQLSGVRRSAGGQLNSSGPSASQLQQLQMQLQLERQHAQAARQQLETARNATRRTNTSSVTTTITQSTATTNIANTESSQQTLQNSQFLLTRLNDPKMSETERQSMESERADRSLFVQELLLSTLVREESSSSDEDDRGEMADFGAMGCVDIMPLDVALENLNLKESNKGNEPPPPPL [KCMF1] | -0.415 | 51.7 |  | 0.00437 | -1.31 | -1.41 |
| MSRLRALLGLGLLVAGSRVPRIKSQTIACRSGPTWWGPQRLNSGGRWDSEVMASTVVKYLSQEEAQAVDQELFNEYQFSVDQLMELAGLSCATAIAKAYPPTSMSRSPPTVLVICGPGNNGGDGLVCARHLKLFGYEPTIYYPKRPNKPLFTALVTQCQKMDIPFLGEMPAEPMTIDELYELVVDAIFGFSFKGDVREPFHSILSVLKGLTVPIASIDIPSGWDVEKGNAGGIQPDLLISLTAPKKSATQFTGRYHYLGGRFVPPALEKKYQLNLPPYPDTECVYRLQ [APOA1BP] | 0.462 | 56.4 | 55.3 | 0.417 | -2.06 | -3.77 |
